# Reference: patent US20240123068A1 (KITE PHARMA, published 2024)
# B1: CD19 E7 scFv (P4) (scFv)
# scFv: DIQMTQSPSSLSASVGDRVTITCRASQDITRYLNWYQQKPGKAPKLLIYAASSLQSGVPSRFSGSGSGTDFTLTISSLQPEDFATYYCQQSYSYPPTFGQGTKVEIKGGGGSGGGGSGGGGSQVQLVESGGGVVQPGRSLRLSCAASGFTFRDYGMHWVRQAPGKGLEWVAVISYEGSNEYYADSVKGRFTISRDNSKNTLYLQMNSLRAEDTAVYYCARDRGFAGWYDYAFDPWGQGTLVTVSS
# notes: also called 45; clone 45
# Tests used:
# [1] = biological target: T1, Human CD19, wild-type full-length protein expressed on cells (human, UniProt P15391 20-556); experiment: scFv clone screen on NALM6 cells with and without CD19
# T1 construct: also called WT CD19; CD19 wild type protein
# T1 sequence: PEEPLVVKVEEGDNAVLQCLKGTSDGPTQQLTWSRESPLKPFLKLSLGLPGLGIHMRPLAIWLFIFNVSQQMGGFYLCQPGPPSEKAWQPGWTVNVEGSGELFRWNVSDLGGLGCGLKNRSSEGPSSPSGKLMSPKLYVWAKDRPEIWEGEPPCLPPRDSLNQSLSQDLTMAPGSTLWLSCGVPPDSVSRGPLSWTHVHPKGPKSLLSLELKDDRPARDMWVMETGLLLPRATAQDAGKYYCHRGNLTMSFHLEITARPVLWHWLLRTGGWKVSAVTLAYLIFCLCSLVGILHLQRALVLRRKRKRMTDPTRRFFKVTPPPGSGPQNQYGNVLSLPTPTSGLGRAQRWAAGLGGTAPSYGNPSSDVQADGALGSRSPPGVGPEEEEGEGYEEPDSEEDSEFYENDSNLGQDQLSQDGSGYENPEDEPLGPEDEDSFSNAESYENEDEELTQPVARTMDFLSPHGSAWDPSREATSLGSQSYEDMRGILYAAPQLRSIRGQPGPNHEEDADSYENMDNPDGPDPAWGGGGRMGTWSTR
# From the text: To ensure that the up to (30) clones could recognize native CD19 expressed on tumor cells, the clones (scFv) were also screened against NALM6 tumor cell line positive (+) CD19 expression (NALM6 cell line⁺ CD19). CD19 knockout Nalm6 cell line (NALM6 cell line⁻ CD1; or CD19KO Nalm6 cell line) were used as a negative control for the selection. CD19KO Nalm6 cell lines used for the screen were engineered CRISPR knocked-out (KO) Nalm6-CD19KO cells. Clones that bound CD19⁺ NALM6 tumor cells, but not CD19-NALM6 tumor cells (CD19KO) were selected (Step 4).
# SIGLEC 7 = biological target: T2, SIGLEC 7 (UniProt Q9Y286 19-357, limits assumed); experiment: counter-screen of the scFv clones against SIGLEC (Step 3)
# T2 construct: Counter-screen reagent of Step 3
# SIGLEC 8 = biological target: T3, SIGLEC 8 (UniProt Q9NYZ4 17-363, limits assumed); experiment: as above
# T3 construct: Counter-screen reagent of Step 3
# SIGLEC 9 = biological target: T4, SIGLEC 9 (UniProt Q9Y336 18-348, limits assumed); experiment: as above
# T4 construct: Counter-screen reagent of Step 3
# T4 sequence (Q9Y336 18-348 limits assumed): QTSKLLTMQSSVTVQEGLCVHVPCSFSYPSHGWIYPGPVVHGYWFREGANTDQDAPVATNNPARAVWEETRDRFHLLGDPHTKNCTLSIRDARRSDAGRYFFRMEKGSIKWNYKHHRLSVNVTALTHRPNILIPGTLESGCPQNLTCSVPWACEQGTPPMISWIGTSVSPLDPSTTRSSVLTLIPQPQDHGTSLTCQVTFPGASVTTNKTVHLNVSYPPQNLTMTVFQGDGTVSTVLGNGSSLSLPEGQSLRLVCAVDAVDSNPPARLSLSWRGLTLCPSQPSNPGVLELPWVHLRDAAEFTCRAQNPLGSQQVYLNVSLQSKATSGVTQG
# T3 sequence (Q9NYZ4 17-363 limits assumed): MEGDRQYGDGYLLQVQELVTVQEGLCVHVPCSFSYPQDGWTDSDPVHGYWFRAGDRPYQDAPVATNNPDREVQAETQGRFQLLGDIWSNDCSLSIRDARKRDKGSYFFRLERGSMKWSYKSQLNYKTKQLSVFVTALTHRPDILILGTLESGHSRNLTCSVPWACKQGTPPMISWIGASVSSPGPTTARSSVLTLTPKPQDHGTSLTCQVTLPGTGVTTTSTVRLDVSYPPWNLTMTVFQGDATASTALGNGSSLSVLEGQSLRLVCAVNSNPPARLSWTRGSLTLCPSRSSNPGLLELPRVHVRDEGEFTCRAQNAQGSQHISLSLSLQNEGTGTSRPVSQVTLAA
# T2 sequence (Q9Y286 19-357 limits assumed): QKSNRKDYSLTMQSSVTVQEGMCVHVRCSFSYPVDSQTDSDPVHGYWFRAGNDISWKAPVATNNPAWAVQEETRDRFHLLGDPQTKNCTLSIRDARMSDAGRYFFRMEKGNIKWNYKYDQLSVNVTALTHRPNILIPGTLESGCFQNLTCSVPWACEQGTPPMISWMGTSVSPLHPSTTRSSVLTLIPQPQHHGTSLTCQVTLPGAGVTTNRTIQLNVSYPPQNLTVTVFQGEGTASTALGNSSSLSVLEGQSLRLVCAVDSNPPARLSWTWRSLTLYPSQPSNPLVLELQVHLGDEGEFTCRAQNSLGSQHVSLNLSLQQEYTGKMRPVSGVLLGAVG
binder,measurement,setting,value
B1,binding result,[1],binds
same,binding result,SIGLEC 7,no binding
same,binding result,SIGLEC 8,no binding
same,binding result,SIGLEC 9,no binding
